Measurements taken from patent US20100254995A1.

Tests used:
[1] = molecular target: human TNFR1 (soluble recombinant protein) (human) (UniProt P19438); test: phage ELISA, plate coated with 1 nM TNFRI, anti-M13-HRP; phage pre-treated 1 h room temp with 1 mg/ml trypsin; phage input 1.13E+10
[2] = molecular target: human TNFR1 (soluble recombinant protein) (human) (UniProt P19438); test: phage ELISA, plate coated with 1 nM TNFRI, anti-M13-HRP; phage pre-treated 1 h room temp with 100 ug/ml trypsin; phage input 1.13E+10
[3] = molecular target: human TNFR1 (soluble recombinant protein) (human) (UniProt P19438); test: phage ELISA, plate coated with 1 nM TNFRI, anti-M13-HRP; phage pre-treated 1 h room temp with 10 ug/ml trypsin; phage input 1.13E+10

Chain of human TNFR1 (soluble recombinant protein) (human) (P19438 41-201 limits assumed): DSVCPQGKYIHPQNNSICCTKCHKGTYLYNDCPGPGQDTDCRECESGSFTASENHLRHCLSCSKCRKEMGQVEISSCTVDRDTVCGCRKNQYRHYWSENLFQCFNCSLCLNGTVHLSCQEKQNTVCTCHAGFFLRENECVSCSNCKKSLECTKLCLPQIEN

phage ELISA signal (read-out not named) [1]: 0.183 | phage ELISA signal (read-out not named) [2]: 0.284 | phage ELISA signal (read-out not named) [3]: 0.86
Substance: DOM1h-131
